# In patent publication US20250188151A1, “C-JUN ANTAGONIST PEPTIDES” (The University of Bath, priority 2022, published 2025):
# T1: cJun bZIP (human, UniProt P05412 252-308, limits assumed)
# T1 construct: Purified from a His-SUMO fusion with the tag cleaved off; also called c-Jun bZIP domain; 60 amino acid c-Jun bZIP construct
# T1 chain: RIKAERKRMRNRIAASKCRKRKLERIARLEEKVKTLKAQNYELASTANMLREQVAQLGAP
# T2: cFos bZIP domain (Homo sapiens, UniProt P01100, S177Y)
# T2 construct: His-SUMO (N, cleaved yes); made in house; host or cells: E. coli
# T2 sequence (P01100 with tags, fused parts or gaps S177Y): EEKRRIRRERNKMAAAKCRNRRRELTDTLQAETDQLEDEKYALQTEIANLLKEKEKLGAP
# B1: HingeW (peptide)
# peptide: MASLEQRAEELARENEELEKEAEELVVEEDVLEEEIEQLEERNYALRKEIEDLQKQLEKLGAPHHHHHH
# notes: Recombinant, capped (MAS at the N-terminus, GAP at the C-terminus) and C-terminally 6xHis-tagged, 69 amino acids; also called peptide 1
# Key:
# [1] = target: cJun (Homo sapiens, UniProt P05412, S292Y); assay: Isothermal titration calorimetry, Example 1 (MicroCal VP-ITC); format: binding; parameters: The same 60 amino acid c-Jun bZIP construct was used for all experiments; His-SUMO (N, cleaved yes); made in house; host or cells: E. coli; conditions: peptide 10 μM injected into cJun 1 μM, single site model; listed as HingeW
# Method: Using a MicroCal VP-ITC instrument (Malvern), 10 μL injections of antagonist peptide (HingeW or A-FosW) at 10 μM were injected into the cell containing cJun at 1 μM. MicroCal Origin software was used to record and analyse the heat change upon addition. Control experiments involved the injection of the antagonist peptide sample into the cell containing ITC buffer alone to determine the heat of dilution which was subtracted. The resulting binding data were fit to a one site binding model to extract the enthalpy change of binding (ΔH) and the equilibrium binding constant (KD), from which the free energy change of binding (ΔG) and the entropy change of binding (AS) was calculated (Wiseman et al., 1989). Thermodynamic parameters are presented as an average of two independent experiments with errors given as one standard deviation.
# [2] = target: T1, cJun bZIP
# [3] = target: T2, cFos bZIP domain; assay: CD spectra/thermal denaturation with cFos bZIP (off-target); format: binding; conditions: CD spectra and thermal denaturation
# Method: (FIG. 11D). Although this represented a negligible 1.3° C. increase in heterodimer Tm, there was crucially a much larger ΔTm for HingeW/cJun relative to the component peptide denaturation profiles than for A-FosW/cJun. The low thermal stability of the HingeW homodimer results in no observable lower baseline prior to the transition such that the Tm for this component, and thus the average, cannot be determined. However, this ΔTm can be estimated to be ˜40° C., compared to 27.5° C. for A-FosW/cJun. The TBS screen has therefore led to an optimised reduction in homodimersation more so than increased heterodimerisation with the target. This ensures that more antagonist is available as free monomer in solution and therefore in a target-dimerisation competent state. Another difference between the two denaturation profiles is the presence of a double transition for the A-FosW/cJun heterodimer, with a smaller initial transition occurring at ˜30° C.
# [4] = target: T1, cJun bZIP; assay: CD spectra at 20 °C
# [5] = target: T1, cJun bZIP; assay: CD thermal denaturation, peptide 5 µM and c-Jun 5 µM
molecule,measurement,setting,value
B1,Kd,[1],14 nM
same,Tm (° C.) (CD),[2],71.2 ° C.
same,interaction with cFos bZIP,[3],no interaction
same,increase in α-helical content relative to the average of the two component spectra,[4],82%
same,Tm (° C.) of peptide-c-Jun heterodimer,[5],71.2 ° C.
